# Tested on: K4 kissing-loop RNA reporter
# Experiment: apparent KD of K4 kissing-loop reporter; higher = weaker reporter binding
# Conditions: Eterna round: R107
# Protocol: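 RNA-MaP round R107: designed RNA switches with theophylline, tryptophan, arginine or FMN aptamers are transcribed on-chip within common flanks. They are titrated with a labelled K4 kissing-loop RNA reporter in RNA-MaP buffer (100 mM Tris pH 7.5, 80 mM KCl, 4 mM MgCl2), without ligand or with the indicated ligand. Median apparent KD per design.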
# [1] = input ligand: theophylline 20 uM
# [2] = input ligand: tryptophan 2.4 mM
# 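Also: bound reporter read as fluorescence of individual clusters on recovered sequencing chips by microscopy, with normalized cluster intensities fitted with a binding model.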
Sequence,apparent KD of K4 kissing-loop reporter (input ligand: FMN 200 uM),apparent KD of K4 kissing-loop reporter (input ligand: arginine 13.2 mM),apparent KD of K4 kissing-loop reporter (input ligand: none),apparent KD of K4 kissing-loop reporter [1],apparent KD of K4 kissing-loop reporter [2]
CGAGUGAUGUUCGUUUUUUACUUUUUUUGACAGGAUAUGCGGAAACGCAGAAGGGUCACCUUUGAGUUAAAAGAAGUUAUUUUUU [Ex FMN A 18],262 nM,267 nM,317 nM,271 nM,249 nM
CCGGACACCUCGGAUACCAGCCUGAGUGAUGUUCAAGCUGAACUCUCUUAAUAGGUCACCGGCCCUUGGCAGCCGCAUCCUAAGC [theeternabot_exclusion_KL_Theo_B_46],375 nM,269 nM,353 nM,310 nM,313 nM
UACGCUUACUUGCGCGGUCCGAUUAACGAUACCAGCGAAGAAGCCCGCCCUUGGCAGCGUUAUAGAGUGAUGUUCACGGAGAUUA [theeternabot_sameState_KL_Theo_A_12],1100 nM,872 nM,989 nM,1070 nM,874 nM
AAACGCUUGAAUAACAAGCGAAAUAAAAUUCGAGGACCGGUACGGCCGCCACUCGGGCUAACUGCGAGUGAUGUUCGAAAAUAAA [Mat - Mod of OpenEnded 3 - D17],156 nM,191 nM,257 nM,405 nM,73.2 nM
UGACUGGAUGGAAGGAGCGCUAAACUCCUAGUGAUGUUAGGGACAUGAGGCAAAGCCUUGAAGCAGGUAGGUCGCCAUCUAGUCU [FiskerMod 27 - Jieux - Same State - Arginine B],233 nM,133 nM,208 nM,176 nM,167 nM
CGCGCGUGAGGACUUGCCCUUCAUGGAGAUACCAGCCAGUAUGCGGGCCCUUGGCAGCUCGAGUGAUGUUCGAGUUUAAGGCAAA [Riesla],130 nM,113 nM,115 nM,114 nM,108 nM
UGUGUUUACCUGACUCAGUGAUGUUGAGAAGGAGCGUGCUAAUGCACAGGUAGGUCGCUCAACCUAAAUUCAGGUGAGCACUAAA,587 nM,250 nM,560 nM,271 nM,478 nM
AUUUUUUUGUCAGGAUAUUAGUAUGCUUUUGGUUUGUUAGUGAUGUUGAUAUUUUGUUUAUGUAUUUAAGAAGGGAUUUAGCGGU [etvuumullin],409 nM,276 nM,362 nM,371 nM,255 nM
UUGCGGAGUGAUGUUUCGGGAUAUCGGGAAGGAGCGCCGAUAACGGCAGGUAGGUCGCCCGGUCCAGUGAUGUUGGGCAUGCAUU [Exclusion Arg A GF 23],200 nM,136 nM,212 nM,201 nM,171 nM
GGCAUGGUGGCAGGAUAUCCUAAUAGAGUGAUGUUCUAGCCCUCGUAGGCGAAAGCCUACGAGGGCGGAGAAGGGCCACCAUGCC,263 nM,384 nM,697 nM,835 nM,431 nM
AAGUUUUAUAAACUCAUGGUUUCGUCAGAUACCAGCCUCGAGAGAGGCCCUUGGCAGCUGCAUGAGUGAUGUUCAUGUUCGAAGA [KL_XTheoA8],253 nM,260 nM,374 nM,239 nM,251 nM
AAUUUACAUUAAUUAUUUAAAGGUUCAGAAGGAGCGUGAAUUAACACAGGUAGGUCGCUGAGCGAGUGAUGUUCGCUAUAUACUA [JR_ExcArginiA_Sub003],62.7 nM,68.9 nM,65.7 nM,91.1 nM,49.4 nM
UUUCUAUCGGGAAGGAGCGUGAAUGAUAAUGGAUAUAGUGAUGUUAUAUAUAAGAACGAAUCGCAGGUAGGUCGCCCGGAUGACU [SSArgB.R],346 nM,357 nM,323 nM,389 nM,169 nM
UUUAUAUUCUGAGGAUAUCGUAUUAAUGAAGUGAUGUUUCAGUAUAUUCUAAUUAUAUAUAAUUUUCGAGAAGGCAGUAUUAUUU [JR_Nu3_SSFMNB_Sub028],187 nM,243 nM,246 nM,320 nM,196 nM
GAAGGUCAAAGACCUUCGUGCACAUCUGAUACCAGUCGCGAAAGCGACCCUUGGCAGCAGGGCAGUGAUGUUGCCAGUGCACAAA [Omei KL Theo A SS A v4],255 nM,221 nM,273 nM,168 nM,253 nM
GGAGCAGUGAUGUUGCUUGUAAUGCAUUCAGAGGAUAUUCGUUUGGGAAGAAGGCUGAAUCGUUCUUCGAGUGAUGUUCGAGGAU [Same State FMN A GF 16],154 nM,154 nM,156 nM,148 nM,138 nM
CGAUGUUCCUGGGAUACCAGUCGGAGUCUCAGAGCUCGGAGUGAUGUUCUGGGAUGUUUCGGCCCUUGGCAGCUCUGGGACUCCU [#2 Exclusion - Theophylline B Attempt #22 (HarryS)],881 nM,630 nM,819 nM,840 nM,662 nM
AAUAAGGAGUGAUGUUCCAAGUGAUGUUAACGAGGACCGGUACGGCCGCCACUCGAUACGGCCGGAAAGUAAGAUAAACUACAAU [Same State - Tryptophan A (Freestyle 3)],70.5 nM,51.3 nM,60.8 nM,55.9 nM,54.6 nM
UGUAAUGGCUGAGCAGCCGUGGUACGAGAUACCAGUGAUUUCGAUCACCCUUGGCAGCUCGGCGUGAGUGAUGUUCACGCUACAC [Theo A SS t12],201 nM,199 nM,203 nM,207 nM,199 nM
GGGUCAUGGAACGGAUAAGUGAUGUUUACCCGAGGACCGGUACGGCCGCCACUCGGUCGUUAUUUCCGACGUGCUGGUAAGACUA [theeternabot_exclusion_KL_Trp_A_10],336 nM,253 nM,378 nM,348 nM,475 nM
UCCUAGGCUCGAAAGAGCCUAGGAUUUACUCAGGAUAUCCGGAAACGGAGAAGGGAGUGACUAGUGAUGUUAGGGACUCCCUAAA,144 nM,80.8 nM,95.5 nM,108 nM,90.6 nM
UAAGAUAUGAGGGAUACCAGCCAUAAGGAAAGUGUGAUGAGUGAUGUUCUGACAAGCCAAGGCCCUUGGCAGCUUUAAUAGCAUC [whbob_SS_Theo_B_th76],271 nM,80.8 nM,164 nM,218 nM,203 nM

Sequence,apparent KD of K4 kissing-loop reporter (input ligand: FMN 200 uM),apparent KD of K4 kissing-loop reporter (input ligand: arginine 13.2 mM),apparent KD of K4 kissing-loop reporter (input ligand: none),apparent KD of K4 kissing-loop reporter [1],apparent KD of K4 kissing-loop reporter [2]
AGUGCACUGUCAGGAUAUAUACAGUGAUGUUGUGUAUGUCAGCAAGUCAAAGACUUGCUUUUCUGUGUAGAAGGGACUGUGUACA [Omei KL FMN B Exc A v2],387 nM,134 nM,154 nM,141 nM,148 nM
UGUACUAUUGUGAGUGAUGUUCACUUCGAUACCAGCAGAGCGAUCUGCCCUUGGCAGCGAGUUAACUGCCGAAAGGCAAGGAUUA [Theo B SS t9],535 nM,528 nM,546 nM,546 nM,378 nM
UGAUAGGACAGAAGGAGCGGAAGUGAUGUUUCCAAAUGGAAUAAGGUGUCAAAGACACCCUUCCAGGUAGGUCGCUGUCCUAUCU [ArgBX 15 #Palindromic #SwitchBubble #StaticStem],147 nM,175 nM,140 nM,161 nM,128 nM
CGCAGUGAUGUUGCGAGUAGCUACAGGGAAGGAGCGUGCUAGAGCACAGGUAGGUCGCCCACUGGGUCAGUGAUGUUGGUCGGGU [Same State Arginine A GF 29],201 nM,166 nM,180 nM,171 nM,171 nM
AUACAGCGACGCGCUAGUGAUGUUAGCGAAGGAGCGACUCAUGAGUCAGGUAGGUCGCGCUAACGUGGUUACGAGAGUAACCAGU [Arg A Ex t1a],93.3 nM,86.8 nM,93.6 nM,80.1 nM,89.4 nM
UAAGAGGACCACUACAAGAGUCCUCGAAUACGAGGACCGGUACGGCCGCCACUCGAUAACUUGUAGUGAUGUUGCAAGUAAGAAU [BrourdMod 2 - Jieux - Same State Tryptophan A],80.4 nM,85.6 nM,85.3 nM,97.4 nM,46 nM
AGAGUGAUGUUUUUUUGAAGUGAGUAAUGUCGAGGACCGGUACGGCCGCCACUCGAGUGAUGUUAGUGAUGUUGAUGUAGUGAUG [?lmullin],138 nM,61.3 nM,72.4 nM,137 nM,127 nM
GCCGUAGAUUGAAGGAGCGCUAGUCUACGAUGACACACAGUGAUGUUGUGCGUGAUUUCAUAGCAGGUAGGUCGCAAUCUACGGC,230 nM,195 nM,214 nM,186 nM,183 nM
GUGCAGUGAUGUUGCACGAGGAAAGACGAUACCAGCCGUAAAUAUGGCCCUUGGCAGCGUGGGCUAGCACAAAAUGUGCUAGUCU [Zareatza],127 nM,109 nM,116 nM,107 nM,98.2 nM
UGCCCGCGCGAAGGAUAUGAGAGCUUGUCUGUCCAGUGAUGUUGGAGGUUGGUGAUUUGCUAGGCGUCAGAAGGUCGAGCUUAUA [theeternabot_sameState_KL_FMN_B_14],192 nM,94.4 nM,153 nM,150 nM,133 nM
AAGCGUGUCGCGGCCGCCACUCCUGAGUGAUGUUCAGAAAGCAGUUUUUUAUUCAGGAAAAGCGCGAGGACCGGGCGACGCCGAU [theeternabot_sameState_KL_Trp_B_1],367 nM,207 nM,460 nM,328 nM,515 nM
UGUACCGAGUCAGGAUAUGAACGACUGACAAAAGUCGGUCGAAUAUCCAGUGAUGUUGGAAAUAAAUCAGAAGGGACUUGGUACU [FmnBS 15 #SwitchBubble #StaticStem],130 nM,805 nM,974 nM,840 nM,726 nM
GUGUGUGAAAACACGCACUUAUAUCCUAGGCAGGAUAUGCGGAAACGCAGAAGGGCCACCGGCGAGAAAAUCCAGUGAUGUUGGA [Ex FMN A 6],281 nM,245 nM,273 nM,192 nM,251 nM
UGACUGGACUGAAGGAGCGCUAAACUCCUAGUGAUGUUAGGGAAACAAGACAAAGUCUUGAGGCAGGUAGGUCGCAGUCUAGUCU [FiskerMod 3 - Jieux - Same State - Arginine B],287 nM,199 nM,264 nM,272 nM,225 nM
UUUGGAGAGGGAAGGAGCGUGAAAGAGAAAGAAUAUAGUGAUGUUAUAUAGAAGAAAGAAUCACAGGUAGGUCGCCCGGAGGAGG [SSArgB.D],707 nM,865 nM,661 nM,990 nM,575 nM
ACAUUAGGCACGGCCGCCACUGGAUUAAGAUCUUAAGUAUUAAUUAACAUGAGUGAUGUUCAUGCCAGGACCGGGUGACUACCAU [KL-SSTryp-B11],275 nM,222 nM,261 nM,267 nM,252 nM
CGGAUGUAGUGAUGUUAUAUUAGAUGUAGACGAGGACCGGUACGGCCGCCACUCGUGACGGCUGCUAGCGCGUUGCGAGGUUUGC [ExTryptoA.Cn],716 nM,488 nM,758 nM,518 nM,543 nM
AAGAGCUAGGCGGCCGCCACUAGAUGUGAACACAUACAAACCAGUGAUGUUGGUAUGAUGGACAGUAGGACCGGGCCUAGCUGAA [Exclusion - Tryptophan B (Freestyle 10)],998 nM,585 nM,1010 nM,1350 nM,995 nM
AGUGAACGAGCGGCCGCCACUAAAUGAGUGAUGUUCGUGAGUAGUGCUGUUGUCAUGAUUGUUUUUAGGACCGGGUUCGAUGUUG [popplmullin],719 nM,735 nM,1270 nM,963 nM,719 nM
AAGCAGUCACUCGAAACCAUCGAAGAUGGGCGAGGACCGGUACGGCCGCCACUCGGAGUGAUGUUCCGAAGACUGCAAAAUAAAA,377 nM,348 nM,592 nM,443 nM,354 nM
AGGAGCGUGCGAUGGAAAUCGCACGCUCCUCGAGGACCGGUACGGCCGCCACUCGCUCGCGCCGAGUGAUGUUCGGCCGGCGAAG [#2 Same State - Tryptophan A Attempt #16 (HarryS)],85.6 nM,128 nM,85.7 nM,58.6 nM,82.8 nM
